Data as given in doi:10.1101/2022.09.26.509586.

Target: piggyBac transposase residues 1-558 (PB1-558) (cabbage looper moth)
Test: AUC

piggyBac transposase residues 1-558 (PB1-558) (domain or fragment)
stoichiometry N: 2
